Data taken from a protein production outcome set (Wang et al. 2014).

Assay: label from the status in PepcDB records

Sequence	protein production
MYRNDPILPTFALILAAGLFYAAYLDGRHIARLLGHVPEELSVGQIGLMAFGAVLLLYGLMGLVSYWLEGIELRPGRHFPTPSTAPVAAGVILVLLLTALSGFFVRLLVYSAQTGHNPTWLQGLIFGSISLVVAALFGIYRRFFGREEVITEEEKSEFPW	failed
MQFIKNLQLNKKKDSDSSEQVLTNKKNKMKYEDFNFIRTLGTGSFGRVILATYKNGNYPPVAIKRFEKCKIIRQKQVDHVFSERKILNYINHPFCVNLHGSFKDDSYLYLVLEFVIGGEFFTFLRRNKRFPNDVGCFYAAQIVLIFEYLQSLNIVYRDLKPENLLLDKDGFIKMTDFGFAKIVETRTYTLCGTPEYIAPEILLNVGHGKAADWWTLGIFIYEILVGCPPFYANEPLLIYQKILEGIIYFPKFLDNNCKHLMKKLLSHDLTKRYGNLKKGAQNVKEHPWFSNIDWVNLLNKNVEVPYKPKYKNIFDSSNFERVQEDLTIADKITNENDPFYDW	failed
MAGLAISPPLGLSFSSRTRNPKPTSFLSHNQRNPIRRIVSALQSPYGDSLKAGLSSNVSGSPIKIDNKAPRFGVIEAKKGNPPVMPSVMTPGGPLDLSSVLFRNRIIFIGQPINAQVAQRVISQLVTLASIDDKSDILMYLNCPGGSTYSVLAIYDCMSWIKPKVGTVAFGVAASQGALLLAGGEKGMRYAMPNTRVMIHQPQTGCGGHVEDVRRQVNEAIEARQKIDRMYAAFTGQPLEKVQQYTERDRFLSASEALEFGLIDGLLETEY	not failed
MCEYTYSNGKKCRRKPLKGSKYCSLHIPFEEGELLYGDRIKYIKKRAFERALERGIRNFEGVKLYDVIIVGKEINEALIFRNSIIKRLVIVTSKIKSLSLIDTTIDTLVIVNSEVDFFYVNGGSIYGVSICSVKFSSSILFRDSSIRYVMINSTEFSPKEVTTEEEFGEKVRIAGRIELANLKDVRRIALNSKYPLMAKIMEEFGIKLSLDRKKPVRVHTLTITGVEFDESPRFRKQVRIFINRFSGQLIFENLSVPGHVEIVNSRVRYPEFVHVIIHNNLVLRNTRLYSDENWNLAYLPNLLAELNVYGFIVIDNCQFNNPYLAEVFYRIARTTWEGSGDKENADEYYYLEMLARRKKVIQHYRKGPRTLKKMVKLLEVLFEFLFADLTCKYGTDWKRPVFLWMGLVIFVFPVFYALTKSVVPTSSLFDYVYFSIVTATTLGYGDLHPIGVGKVIASIEAIFGMFMWAVFLTVFARKYMR	failed
MVVVTGREPDSRRQDGAMSSSDAEDDFLEPATPTATQAGHALPLLPQEFPEVVPLNIGGAHFTTRLSTLRCYEDTMLAAMFSGRHYIPTDSEGRYFIDRDGTHFGDVLNFLRSGDLPPRERVRAVYKEAQYYAIGPLLEQLENMQPLKGEKVRQAFLGLMPYYKDHLERIVEIARLRAVQRKARFAKLKVCVFKEEMPITPYECPLLNSLRFERSESDGQLFEHHCEVDVSFGPWEAVADVYDLLHCLVTDLSAQGLTVDHQCIGVCDKHLVNHYYCKRPIYEFKITW	not failed
MNLESKWLEDFSALAATRSFSQAAERRFVTQPAFSRRIRSLEAALGLVLVNRSRTPVELTAAGQLFLVTARTVVEQLGEVVRHLHHLEGGQGEVMQVAAAHSLALGFFPRWIAQLRNEGLNIATRLVATNVGDAVHALREGGCDLMLAFYDPDAALQMDAEIFPSLHLGHTEMLPVCAADAEGRPLFDMEGEASVPLLAYSTGAFLGRSVNLLLRQRNLRFTTVYETAMADSLKSMALEGLGIAWVPQLSVRAELARGELVVCGGPQWHVPLEIRLYRCALVRKANVRLLWRKLESAAPPESL	failed
MVPVVSPGPLVPVADFGPLDRLRGWIVTGLITLLATVTRFLNLGSLTDAGTPIFDEKHYAPQAWQVLNNHGVEDNPGYGLVVHPPVGKQLIAIGEAIFGYNGFGWRFTGALLGVVLVALVVRIVRRISRSTLVGAIAGVLLICDGVSFVTARTALLDGFLTFFVVAAFGALIVDRDQVRERMHIALLAGRSAATVWGPRVGVRWWRFGAGVLLGLACATKWSGVYFVLFFGAMALAFDVAARRQYQVQRPWLGTVRRDVLPSGYALGLIPFAVYLATYAPWFASETAIDRHAVGQAVGRNSVVPLPDAVRSLWHYTAKAFHFHAGLTNSAGNYHPWESKPWTWPMSLRPVLYAIDQQDVAGCGAQSCVKAEMLVGTPAMWWLAVPVLAYAGWRMFVRRDWRYAVVLVGYCAGWLPWFADIDRQMYFFYAATMAPFLVMGISLVLGDILYHPGQGSERRTLGLIVVCCYVALVVTNFAWLYPVLTGLPISQQTWNLEIWLPSWR	failed
MNSILSSFKKNQKGIILILIASICTTIGQTLWKMSAMHNMLYILIGFFFYGIGAVGMIIALKYGSFSVIHPMMSMGYVFTIIVSYILLKESVGLGKIIGVILIMFGVAFIGLGDE	failed
MFCLMSKEYLSWDKFIVTKIPSSVKLDPIIYEYIKKDHLILDIGCGVGKVSLQLAFQGFYVEGIDINETGILAAQDSARKLNLADKAHFRVGDAKDLPYMDDKFDIVIMHGLLTIIVDNSDRNKIIQEAYRVLNPEGHLYIVDFGQTWHSDIYRERYLKDFPITKEEGSFLVYNKDTGEIEFISHHYTEKELIFLLVNNGFKIDYFRDFLLFSGFSFSLYIVQNNKILIILIYFFYLWEKETLQ	failed
MSLSVEFNKQQVRPRSEISPQDCWDITPLYLNRKAWKADLDSFGLKTDGSPTWPALQATQYQLDNSESLLSLLTTLFSIERKLNKLYVYAHLTHDQDITNQEGIADLKSITHLHTLFAEETSWVQPALTSLSESLIAQHLSAPCLAPYRFYLEKIFRLSIHTGTPGEEKILASAFTPLEVASKAFSSLSDSEIPFGQATDSEGNSHPLSHALASLYMQSTDRELRKTSYLAQCERYHSYRHTFANLLNGKIQAHVFYAKNKRYNSCLQAALYHNNIPTTVYTNLIDIVKKNSSLITKYFSIKQRCLNLKDFHFYDVYAPLSQSKEKKYTFQEAVDLIYTSLSPLGTEYIDTLKQGLTTQGWVDKYENLNKRSGAYSSGCYDSHPYVLLNYTGTLYDVSVIAHEGGHSMHSYFSRKHQPFHDAQYPIFLAEIASTLNEMLLMDSMLKESDSKEEKITILTRCLDTIFSTLFRQVLFASFEYDIHHAAEHGVPLTEEYLSSTYKNLQNEFYGEIITFDVLSNIEWARIPHFYYNFYVYQYATGIIAALCFLEKILNNEDNALNSYLNFLKSGGSDFPLEILKKSGLDMGTVEPIQKAFCFIEKKIQELSSLIEGHHHHHH	not failed
MLIAVPLDDTNFSENLKKAKEKGADIVELRVDQFSDTSLNYVKEKLEEVHSQGLKTILTIRSPEEGGREVKNREELFEELSPLSDYTDIELSSRGLLVKLYNITKEAGKKLIISYHNFELTPPNWIIREVLREGYRYGGIPKIAVKANSYEDVARLLCISRQVEGEKILISMGDYGKISRLAGYVFGSVITYCSLEKAFAPGQIPLEEMVELRKKFYRL	not failed
MSLNDNNTILGFDVNLICDFFLNTERQGPGSPEVTLKALSFIDNLTNKSLIADLGCGTGGQTMILAQHVPGKITGIDFFPGFIERFNKNAEKLNLQNRVKGIVGSMDDLSFEKDSLDLIWSEGAIYNIGFERGLKEWRNYLKPGGYLAVSESVWFTDQRPAEIHDFWMSAYTEIDTVPNKVAQIQKAGYIPVATFILPENCWIEHYFAPQAKAEEIFRRKHAGSRIVEELITSNHHEAELYSKYKAYYGYAFFICKKGFSLREGHHHHHH	not failed
MSNAVSAENEGPGAIPGLLHLSGPCVYVAGSQGVSMTQTMPIGAVIAPVTPLQQNCTIVWCAKTLKAAVIDPGGEVDRLLKAIADKGLTLEKIWITHGHMDHAGGAAELKARTGVPIEGPHKDDQFWIDRIQDSGEMYGMPEARIFVTDRWLDDGDTVTLGETEFEVFHCPGHTPGHVVFFHRETKFAQVGDVLFQGSIGRTDFPMGNHQDLIDSITQKLWPLGEDVRFVPGHGPMSTFGAERRGNPFVGDRVVAAMKAQGAGFTIPKNNSPG	failed
MNEQIPHDKSLDNSLTLLKEGYLFIKNRTERYNSDLFQARLLGKNFICMTGAEAAKVFYDTDRFQRQNALPKRVQKSLFGVNAIQGMDGSAHIHRKMLFLSLMTPPHQKRLAELMTEEWKAAVTRWEKADEVVLFEEAKEILCRVACYWAGVPLKETEVKERADDFIDMVDAFGAVGPRHWKGRRARPRAEEWIEVMIEDARAGLLKTTSGTALHEMAFHTQEDGSQLDSRMAAIELINVLRPIVAISYFLVFSALALHEHPKYKEWLRSGNSREREMFVQEVRRYYPFGPFLGALVKKDFVWNNCEFKKGTSVLLDLYGTNHDPRLWDHPDEFRPERFAEREENLFDMIPQGGGHAEKGHRCPGEGITIEVMKASLDFLVHQIEYDVPEQSLHYSLARMPSLPESGFVMSGIRRKS	not failed
MLFDTSPKDNRKDFFDREKEIEKLKGLRAPITLVLGLRRTGKSSIIKIGINELNLPYIYLDLRKFEERNYISYKDFLLELQKEINKLVKRLPSLLKALKNIQGIVIMGNEIKFNWNRKDRLSFANLLESFEQASKDNVIIVLDEAQELVKLRGVNLLPALAYAYDNLKRIKFIMSGSEMGLLYDYLRVEDPESPLFGRAFSTVELKPFSREEAIEFLRRGFQEADIDFKDYEVVYEKIGGIPGWLTYFGFIYLDNKNLDFAINQTLEYAKKLILKEFENFLHGREIARKRYLNIMRTLSKCGKWSDVKRALELEEGIEISDSEIYNYLTQLTKHSWIIKEGEKYCPSEPLISLAFS	not failed
MRRLPTFGWALLVSIWAGLVGGAVIREPSVDLVPLYAVICQLLGLIAAYGTMRERSHILESVHRPGRVGMFIIILFFVMVPLTTVFALVLGDASVAGVATQWVSYLVGLGIALYVAFAGGFDRAWEKYT	failed
MKFVHSETHRRHDPQFFIVRGQITRSTEQPERADRLLAAAQRRGHERVEARDFGEAILAEVHCPRYLDFLKNGYAQWRALPGASQEITPHVHPPREESGYPVSIIGRAGFHIADTSSPMGPHTWEAALAASHSACTAAQLVIEGAPAAYSLSRPPGHHATRDRAGGFCFLNHTAVAAQWLRHHVARVAILDVDVHHGNGTQDIFYERDDVLHVSLHADPAYFYPFFTGYAQETGRGIGAGCNLNLPLPIGTDDEAFLAALRIACRRVLDFKPDVVVVALGLDTYEGDPLNAFRITTPGFARIGQAIAGLALPTVLVQEGGYLSDELGENLATFLDGFCQHHRPTATLR	failed
MCTGTKSFFLLQRFKLKEDVTMEQKPVLDVNEVPKPGKWLFLSIQHLFAMFGSTVLVPFLTGLNPSVALISSGLGTLAFLLITKGQVPAYLGSSFAFIAPIITAKTAGGPGAAMLGGLLAGLVYILISLGIKKSGSEWIMKLLPPIVVGPVVMVIGLALAHTAVNMAMNGADGKYSFTHFSVALVTLAITIICSIFGRGFFSIIPVLLGIIGGYIFAYFQGLVDLKPVAEAKWFVVPDFTVPFVTYTPEFSWKIVLLMVPVALVTISEHIGHQIVLGNVIKRDLIEKPGLHRSIFGDGVATLIASLIGGPPNTTYGENIGVLAITRAYSVYLFIGSAVFAIMFGFIGKISALIHSIPTPVMGGVSILLFGVIASSGLRMMVDDKTDLSDKRNLMIASVILVIGIGGAVLHVGESFQVEGMALAAIVGVLLNLLLPETKQIKQSKQIAS	failed
RDLDAVLQAIVQRARSLLGTDVAYLTLHDEAEGDTYMRVTEGSVAARFQQLRLGMGEGLGGLVAQTARPYVTPDYFNDERFQHTRVIDGGVRDEGLVAILGVPLMIGPQVIGVLFAADRRARVFEREQIALLGSFAALAAAAIDTANLLTETRSALDRLARANEIIRDRSGVIERASDVHDRLAELVLRGG	failed
MYLTCRFEESKSAEKAVVALEESTSGEPKTPTESHEKLRKVRSDQGSSTTSSNQENIGSSSVSFRNQVLQSTVTNQKQDSPIPVESNREKAASKEVEAGSQSTNEGIAGQSSSTEKPKEEESAKQRWSRSQREAALMKFRLKRKDRCFDKKHLKQIQDQTDSMEMYKNGLQVRYQSRKKLAEQRPRVKGQFVRTVNSDASTKS	failed
